Earlier results on 6 molecules are cited in US20240247069A1, “FGFR3 BINDING MOLECULES AND METHODS OF USE THEREOF” (Regeneron Pharmaceuticals, Inc., priority 2023, published 2024).

Where a chain is given by its changes, count along the chain named. Read-outs that look alike come from different tables or passages of the source.

The test system of this series is FGFR3.
Where [1] appears, read: Table T-3, exemplary FGFR3 D3 binding sequences from cited PCT publications.
Setting [2] is: literature antibodies, sequences from cited PCT publications.

B1: MS-Pro-54: anti-FGFR3 Ig-like domain 3 antibody of WO 2002/102972 A2; VH SEQ ID NO:42, VL SEQ ID NO:43 (antibody, V domains shown)
VH: QVQLVQSGAEVKKPGASVKVSCKASGYTFTSYYMHWVRQAPGQGLEWMGWINPNSGGTNYAQKFQGRVTMTRDTSISTAYMELSSLRSEDTAVYYCARNMAYTNYQYVNMPHFDYWGQGTLVTVSS
VL: DIELTQPPSVSVAPGQTARISCSGDALGDKYASWYQQKPGQAPVLVIYDDSDRPSGIPERFSGSNSGNTATLTISGTQAEDEADYCQSYDYFKLVFGGGTKLTVLGQ
For B1, the Activity entry is “Antagonistic” under setting [1] and “Antagonistic” under setting [2].

B2: PRQ-012: anti-FGFR3 domain 2 antibody of WO 2006/048877 A2; VH SEQ ID NO:47, VL SEQ ID NO:27 (antibody, V domains shown)
VH: QVQLKESGPALVKPTQTLTLTCTFSGFSLSTSGVGVGWIRQPPGKALEWLALIDWDDDKYYSTSLKTRLTISKDTSKNQVVLTMTNMDPVDTATYYCARYHSWYEMGYYGSTVGYMFDYWGQGTLVTVSS
VL: DIELTQPPSVSVAPGQTARISCSGDALGDKYASWYQQKPGQAPVLVIYDDSDRPSGIPERFSGSNSGNTATLTISGTQAEDEADYYCQSYDFDFAVFGGGTKLTVLGQ
As for B2, the Activity result under setting [2] is “Antagonistic”.

B3: PRQ-001: anti-FGFR3 domain 2 antibody of WO 2006/048877 A2; VH SEQ ID NO:46, VL SEQ ID NO:29 (antibody, V domains shown)
VH: QVQLQQSGPGLVKPSQTLSLTCAISGDSVSSNSAAWNWIRQSPGRGLEWLGRTYYRSKWYNDYAVSVKSRITINPDTSKNQFSLQLNSVTPEDTAVYYCARSYYPDFDYWGQGTLVTVSS
VL: DIELTQPPSVSVAPGQTARISCSGDALGDKYASWYQQKPGQAPVLVIYDDSDRPSGIPERFSGSNSGNTATLTISGTQAEDEADYYCQSYDGPDLWVFGGGTKLTVLGQ
Regarding B3, under setting [2], the Activity result is on record as “Antagonistic”.

B4: PRQ-002: anti-FGFR3 domain 2 antibody of WO 2006/048877 A2; VH SEQ ID NO:24, VL SEQ ID NO:25 (antibody, V domains shown)
VH: QVQLVQSGAEVKKPGASVKVSCKASGYTFTSYYMHWVRQAPGQGLEWMGWINPNSGGTNYAQKFQGRVTMTRDTSISTAYMELSSLRSEDTAVYYCARDFLGYEFDYWGQGTLVTVSS
VL: B3 VL with G92Y, P93S, D94A, L95D, W96Y
For the molecule B4, the Activity result under setting [2] is on record as “Antagonistic”.

B5: MS-Pro-55: anti-FGFR3 Ig-like domain 3 antibody of WO 2002/102972 A2; VH SEQ ID NO:44, VL SEQ ID NO:45 (antibody, V domains shown)
VH: QVQLVQSGAEVKKPGASVKVSCKASGYTFTSYYMHWVRQAPGQGLEWMGWINPNSGGTNYAQKFQGRVTMTRDTSISTAYMELSSLRSEDTAVYYCARSMNSTMYWYLRRVLFDHWGQGTLVTVSS
VL: DIALTQPASVSGSPGQSITISCTGTSSDVGGYNYVSWYQQHPGKAPKLMIYDVSNRPSGVSNRFSGSKSGNTASLTISGLQAEDEADYYCQSYDMYNYIVFGGGTKLTVLGQ
As to B5, the Activity entry under setting [1] was “Antagonistic” and the Activity result under setting [2] was “Antagonistic”.

B6: PRQ-026: anti-FGFR3 IIIc antibody of WO 2006/048877 A2; VH SEQ ID NO:36, VL SEQ ID NO:37 (antibody, V domains shown)
VH: QVQLVQSGAEVKKPGASVKVSCKASGYTFTSYYMHWVRQAPGQGLEWMGWINPNSGGTNYAQKFQGRVTMTRDTSISTAYMELSSLRSEDTAVYYCARGYWYAYFTYINYGYFDNWGQGTLVTVSS
VL: DIALTQPASVSGSPGQSITISCTGTSSDVGGYNYVSWYQQHPGKAPKLMIYDVSNRPSGVSNRFSGSKSGNTASLTISGLQAEDEADYYCQSYDNNSDWFGGGTKLTVLGQ
In the case of B6, the Activity result is listed as “Antagonistic” under setting [1] and “Antagonistic” under setting [2].
